Data from patent US20200392227A1 (LYVGEN BIOPHARMA, published 2020).
Where a chain is given by its changes, count along the chain named. Read-outs that look alike come from different tables or passages of the source.

What was measured:
[1] = target: T1, human FcRI protein (MednaBio, E1031) (human, UniProt P12314 16-288, limits assumed); test: BLI
T1 construct: Bought; loaded on anti-penta-HIS biosensors; also called FcγRI
In short: (§1)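 On an Octet Red96 System, anti-penta-HIS biosensors loaded with commercial human Fc receptor proteins were dipped into test IgG diluted 1:3 over 8 points from 300 nM. Fcγ receptor runs used pH 7.2 and FcRn runs used pH 6. Global fitting of these biolayer interferometry data gave the values for Kd, kon and koff, using a 1:1 binding model.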

[2] = target: T2, human FcRIIA protein (MednaBio, E1033) (human, UniProt P12318 34-218, limits assumed); test: BLI
T2 construct: Bought; also called FcγRIIA
T2 sequence (looked up): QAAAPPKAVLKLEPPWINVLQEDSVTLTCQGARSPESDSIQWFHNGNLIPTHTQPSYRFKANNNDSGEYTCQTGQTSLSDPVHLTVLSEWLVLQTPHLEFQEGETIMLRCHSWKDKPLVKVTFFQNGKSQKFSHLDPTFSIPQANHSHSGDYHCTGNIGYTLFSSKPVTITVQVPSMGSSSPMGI
In short: as §1

[3] = target: T3, human FcRIIB/C protein (MednaBio, E1034) (human, UniProt P31994 43-217, limits assumed); test: BLI
T3 construct: Bought as FcRIIB/C; also called FcγRIIB; CD32B
T3 sequence (looked up): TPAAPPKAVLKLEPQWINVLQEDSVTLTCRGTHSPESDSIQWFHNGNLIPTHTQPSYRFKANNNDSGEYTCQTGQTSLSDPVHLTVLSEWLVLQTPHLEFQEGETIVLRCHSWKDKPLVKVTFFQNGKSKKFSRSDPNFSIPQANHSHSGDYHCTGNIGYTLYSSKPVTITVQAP
In short: as §1

[4] = target: T4, human FcRIIIA-F158 protein (MednaBio, E1036) (human, UniProt P08637 17-208); test: BLI
T4 construct: Bought; also called FcγRIIIA(F)
In short: as §1

[5] = target: T5, human FcRIIIA-V158 protein (MednaBio, E1035) (human, UniProt P08637 17-208); test: BLI
T5 construct: Bought; also called FcγRIIIA(V); FcgRIIIA(V)
In short: as §1

[6] = target: T6, human FcRIIIB protein (MednaBio, E1037) (human, UniProt O75015 17-200); test: BLI
T6 construct: Bought; also called FcγRIIIB; FcgRIIIB
In short: as §1

[7] = target: T7, human FcRn protein (MednaBio, E1032) (human, UniProt P55899 24-297; P61769 21-119); test: BLI
T7 construct: Bought; assays at pH 6
In short: as §1

[8] = target: T8, human FcγRIIA(R131) expressed on CHO cells (human, UniProt P12318 34-317); test: FACS, CHO cells expressing FcγRIIA(R131)
T8 construct: whole, on cells
T8 sequence (looked up): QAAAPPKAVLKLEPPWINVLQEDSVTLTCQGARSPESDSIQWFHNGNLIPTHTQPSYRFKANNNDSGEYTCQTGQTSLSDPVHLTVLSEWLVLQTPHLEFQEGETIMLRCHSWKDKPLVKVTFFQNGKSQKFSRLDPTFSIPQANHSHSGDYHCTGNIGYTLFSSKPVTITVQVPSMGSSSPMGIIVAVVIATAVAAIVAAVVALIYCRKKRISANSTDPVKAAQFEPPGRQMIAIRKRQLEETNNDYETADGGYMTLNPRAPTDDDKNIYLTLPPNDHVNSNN
Method: (§2) For FACS analysis of the IgG mutants' binding to different FcγRs, FcγR overexpressing CHO cells were harvested using trypsin-EDTA and were suspended in cold staining buffer (3% BSA in PBS). Test IgG mutants, which were diluted in staining buffer, were added into the cells. The mixture was incubated 4° C. for 2 hours, and then washed twice with cold staining buffer and re-suspended in PE-labeled anti-human IgG followed by incubation at 4° C. for 2 hours. The mixture was washed twice with staining buffer and re-suspended in 2% PFA in PBS for FACS.

[9] = target: T1, human FcRI protein (MednaBio, E1031); test: BLI; remark: listed apart in the source
In short: as §1

[10] = target: T2, human FcRIIA protein (MednaBio, E1033); test: BLI; remark: listed apart in the source
In short: as §1

[11] = target: T3, human FcRIIB/C protein (MednaBio, E1034); test: BLI; remark: listed apart in the source
In short: as §1

[12] = target: T4, human FcRIIIA-F158 protein (MednaBio, …); test: BLI; remark: listed apart in the source
In short: as §1

[13] = target: T5, human FcRIIIA-V158 protein (MednaBio, …); test: BLI; remark: listed apart in the source
In short: as §1

[14] = target: T6, human FcRIIIB protein (MednaBio, E1037); test: BLI; remark: listed apart in the source
In short: as §1

[15] = target: T7, human FcRn protein (MednaBio, E1032); test: BLI; remark: listed apart in the source
In short: as §1

[16] = target: T9, human FcγRI expressed on CHO cells (human, UniProt P12314 16-374); test: FACS, CHO cells expressing FcγRI
T9 construct: whole, on cells
Method: as §2

T4 sequence (P08637 17-208 limits assumed): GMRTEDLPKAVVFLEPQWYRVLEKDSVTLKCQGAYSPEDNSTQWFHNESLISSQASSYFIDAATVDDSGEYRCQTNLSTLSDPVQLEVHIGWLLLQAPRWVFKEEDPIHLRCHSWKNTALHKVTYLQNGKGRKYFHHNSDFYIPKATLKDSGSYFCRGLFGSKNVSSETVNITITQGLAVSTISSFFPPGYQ
T5 sequence (P08637 17-208 F176V): as the sequence (P08637 17-208 limits assumed) above, with F160V counted along it
T1 sequence (P12314 16-288 limits assumed): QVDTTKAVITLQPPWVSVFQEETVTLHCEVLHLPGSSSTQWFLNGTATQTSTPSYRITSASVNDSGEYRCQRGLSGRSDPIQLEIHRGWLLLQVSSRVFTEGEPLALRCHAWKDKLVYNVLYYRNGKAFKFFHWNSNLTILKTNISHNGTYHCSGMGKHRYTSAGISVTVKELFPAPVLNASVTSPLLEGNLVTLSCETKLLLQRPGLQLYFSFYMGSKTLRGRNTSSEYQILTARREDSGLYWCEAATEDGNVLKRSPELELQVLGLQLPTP
T6 sequence (O75015 17-200 limits assumed): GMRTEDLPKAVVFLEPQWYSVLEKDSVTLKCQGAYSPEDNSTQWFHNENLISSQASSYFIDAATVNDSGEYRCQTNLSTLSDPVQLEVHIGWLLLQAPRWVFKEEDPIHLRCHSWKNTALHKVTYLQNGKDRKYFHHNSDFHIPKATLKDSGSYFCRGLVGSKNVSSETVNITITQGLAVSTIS
T7 sequence (P55899 24-297 limits assumed, form in doubt, chain 1 of 2): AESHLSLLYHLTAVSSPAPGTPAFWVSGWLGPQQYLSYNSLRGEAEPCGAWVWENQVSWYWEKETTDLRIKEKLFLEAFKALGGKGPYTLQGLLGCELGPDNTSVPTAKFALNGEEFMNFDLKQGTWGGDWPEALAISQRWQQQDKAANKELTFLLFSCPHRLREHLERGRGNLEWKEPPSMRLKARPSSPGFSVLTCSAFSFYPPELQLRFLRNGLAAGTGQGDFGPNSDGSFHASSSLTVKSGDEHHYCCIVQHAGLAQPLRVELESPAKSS
T7 sequence (P61769 21-119 limits assumed, form in doubt, chain 2 of 2): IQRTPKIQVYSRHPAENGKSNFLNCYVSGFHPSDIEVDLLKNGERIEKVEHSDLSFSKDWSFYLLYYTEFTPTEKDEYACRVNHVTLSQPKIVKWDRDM
T9 sequence (P12314 16-374): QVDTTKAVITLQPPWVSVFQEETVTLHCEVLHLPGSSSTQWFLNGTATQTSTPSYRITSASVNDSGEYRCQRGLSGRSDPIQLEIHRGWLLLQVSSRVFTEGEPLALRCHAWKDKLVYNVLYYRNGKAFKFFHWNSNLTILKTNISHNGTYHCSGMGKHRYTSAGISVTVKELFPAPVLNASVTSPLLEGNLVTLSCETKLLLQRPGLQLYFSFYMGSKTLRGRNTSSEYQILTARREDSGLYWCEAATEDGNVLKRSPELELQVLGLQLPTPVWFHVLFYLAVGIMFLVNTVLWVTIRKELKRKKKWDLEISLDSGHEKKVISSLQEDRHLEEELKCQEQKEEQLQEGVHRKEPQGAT

B1: anti-CD137 IgG2 with Fc variant G2m5 (antibody)
heavy: EVQLVQSGAEVKKPGESLRISCKGSGYSFSTYWISWVRQMPGKGLEWMGKIYPGDSYTNYSPSFQGQVTISADKSISTAYLQWSSLKASDTAMYYCARGYGIFDYWGQGTLVTVSSASTKGPSVFPLAPCSRSTSESTAALGCLVKDYFPEPVTVSWNSGALTSGVHTFPAVLQSSGLYSLSSVVTVPSSNFGTQTYTCNVDHKPSNTKVDKTVERKCCVECPPCPAPPVAGPSVFLFPPKPKDTLMISRTPEVTCVVVDVSHEDPEEQFNWYVDGVEVHNAKTKPREEQFNSTFRVVSVLTVVHQDWLNGKEYKCKVSNKGLPAPIEKTISKTKGQPREPQVYTLPPSREEMTKNQVSLTCLVKGFYPSDIAVEWESNGQPENNYKTTPPMLDSDGSFFLYSKLTVDKSRWQQGNVFSCSVMHEALHNHYTQKSLSLSPGK
light: SYELTQPPSVSVSPGQTASITCSGDNIGDQYAHWYQQKPGQSPVLVIYQDKNRPSGIPERFSGSNSGNTATLTISGTQAMDEADYYCATYTGFGSLAVFGGGTKLTVLGQPKAAPSVTLFPPSSEELQANKATLVCLISDFYPGAVTVAWKADSSPVKAGVETTTPSKQSNNKYAASSYLSLTPEQWKSHRSYSCQVTHEGSTVEKTVAPTECS
notes: copies: 2 + 2
binding result [1]: no binding (tested: 300 nM)
Kd [2]: 230 nM
koff [2]: 0.14 s⁻¹
kon [2]: 600000 M⁻¹ s⁻¹
Kd [3]: 310 nM
koff [3]: 0.12 s⁻¹
kon [3]: 390000 M⁻¹ s⁻¹
binding result [4]: no binding (tested: 300 nM)
binding result [5]: no binding (tested: 300 nM)
binding result [6]: no binding (tested: 300 nM)
Kd [7]: 14 nM
koff [7]: 0.011 s⁻¹
kon [7]: 800000 M⁻¹ s⁻¹
binding result [8]: no binding (tested: 10 ug/ml)

B2: anti-CD137 IgG2 with Fc variant G2m17 (antibody)
heavy: EVQLVQSGAEVKKPGESLRISCKGSGYSFSTYWISWVRQMPGKGLEWMGKIYPGDSYTNYSPSFQGQVTISADKSISTAYLQWSSLKASDTAMYYCARGYGIFDYWGQGTLVTVSSASTKGPSVFPLAPCSRSTSESTAALGCLVKDYFPEPVTVSWNSGALTSGVHTFPAVLQSSGLYSLSSVVTVPSSNFGTQTYTCNVDHKPSNTKVDKTVERKCCVECPPCPAPPVASVFLFPPKPKDTLMISRTPEVTCVVVDVEHEDPEVQFNWYVDGVEVHNAKTKPREEQFNSTFRVVSVLTVVHQDWLNGKEYKCKVSNKGLPAPIEKTISKTKGQPREPQVYTLPPSREEMTKNQVSLTCLVKGFYPSDIAVEWESNGQPENNYKTTPPMLDSDGSFFLYSKLTVDKSRWQQGNVFSCSVMHEALHNHYTQKSLSLSPGK
light: B1 light
notes: copies: 2 + 2
Kd [9]: 253 nM
koff [9]: 0.277 s⁻¹
kon [9]: 1.09e+06 M⁻¹ s⁻¹
Kd [10]: 422 nM
koff [10]: 0.274 s⁻¹
kon [10]: 648000 M⁻¹ s⁻¹
Kd [11]: 236 nM
koff [11]: 0.0848 s⁻¹
kon [11]: 361000 M⁻¹ s⁻¹
Kd [12]: 168 nM
koff [12]: 0.262 s⁻¹
kon [12]: 1.56e+06 M⁻¹ s⁻¹
Kd [13]: 153 nM
koff [13]: 0.205 s⁻¹
kon [13]: 1.34e+06 M⁻¹ s⁻¹
Kd [14]: 117 nM
koff [14]: 0.204 s⁻¹
kon [14]: 1.74e+06 M⁻¹ s⁻¹
Kd [15]: 7.46 nM
koff [15]: 0.0139 s⁻¹
kon [15]: 1.87e+06 M⁻¹ s⁻¹

B3: anti-CD137 IgG2 with Fc variant G2m20 (antibody)
heavy: EVQLVQSGAEVKKPGESLRISCKGSGYSFSTYWISWVRQMPGKGLEWMGKIYPGDSYTNYSPSFQGQVTISADKSISTAYLQWSSLKASDTAMYYCARGYGIFDYWGQGTLVTVSSASTKGPSVFPLAPCSRSTSESTAALGCLVKDYFPEPVTVSWNSGALTSGVHTFPAVLQSSGLYSLSSVVTVPSSNFGTQTYTCNVDHKPSNTKVDKTVERKCCVECPPCPAPPVAPSVFLFPPKPKDTLMISRTPEVTCVVVDVSHEDPEVQFNWYVDGVEVHNAKTKPREEQFNSTFRVVSVLTVVHQDWLNGKEYKCKVSNKGLPAPIEKTISKTKGQPREPQVYTLPPSREEMTKNQVSLTCLVKGFYPSDIAVEWESNGQPENNYKTTPPMLDSDGSFFLYSKLTVDKSRWQQGNVFSCSVMHEALHNHYTQKSLSLSPGK
light: B1 light
notes: copies: 2 + 2
binding result [9]: no binding (tested: 300 nM)
Kd [10]: 829 nM
koff [10]: 0.0165 s⁻¹
kon [10]: 19900 M⁻¹ s⁻¹
Kd [11]: 517 nM
koff [11]: 0.0915 s⁻¹
kon [11]: 176000 M⁻¹ s⁻¹
Kd [12]: 917 nM
koff [12]: 0.013 s⁻¹
kon [12]: 14300 M⁻¹ s⁻¹
Kd [13]: 1260 nM
koff [13]: 0.0149 s⁻¹
kon [13]: 11800 M⁻¹ s⁻¹
binding result [14]: no binding (tested: 300 nM)
Kd [15]: 57.6 nM
koff [15]: 0.0122 s⁻¹
kon [15]: 212000 M⁻¹ s⁻¹

B4: anti-CD137 IgG2 with Fc variant G2m28 (antibody)
heavy: B3 heavy with S261E
light: B1 light
notes: also called Gbn28; copies: 2 + 2
Kd [9]: 66.1 nM
koff [9]: 0.098 s⁻¹
kon [9]: 1.49e+06 M⁻¹ s⁻¹
Kd [10]: 191 nM
koff [10]: 0.0898 s⁻¹
kon [10]: 470000 M⁻¹ s⁻¹
Kd [11]: 256 nM
koff [11]: 0.0464 s⁻¹
kon [11]: 181000 M⁻¹ s⁻¹
Kd [12]: 527 nM
koff [12]: 0.257 s⁻¹
kon [12]: 487000 M⁻¹ s⁻¹
binding result [13]: no binding (tested: 300 nM)
binding result [14]: no binding (tested: 300 nM)
Kd [15]: 26.4 nM
koff [15]: 0.0195 s⁻¹
kon [15]: 737000 M⁻¹ s⁻¹

B5: anti-CD137 IgG2 with Fc variant G2m19 (antibody)
heavy: B2 heavy with L321F
light: B1 light
notes: copies: 2 + 2
binding result [9]: no binding (tested: 300 nM)
Kd [10]: 336 nM
koff [10]: 0.0836 s⁻¹
kon [10]: 249000 M⁻¹ s⁻¹
Kd [11]: 240 nM
koff [11]: 0.0387 s⁻¹
kon [11]: 162000 M⁻¹ s⁻¹
binding result [12]: no binding (tested: 300 nM)
binding result [13]: no binding (tested: 300 nM)
binding result [14]: no binding (tested: 300 nM)
Kd [15]: 35.4 nM
koff [15]: 0.00941 s⁻¹
kon [15]: 265000 M⁻¹ s⁻¹
binding result [16]: no binding (tested: 10 ug/mL)
